According to PMC7171142 (Scientific Reports, 2020):

Tests used:
[1] = target: Recombinant Ecto-PfRipr (D21-N1086), C-terminal His-tag (P. falciparum 3D7) (UniProt O97302); assay: SPR; single-cycle kinetics, Biacore X100; recombinant PfRipr immobilised on a CM5 chip as ligand; analytes at 3.13, 6.25, 12.5, 25 and 50 nM, contact time 120 s, dissociation 180 s, last dissociation 3000 s
[2] = target: T1, Recombinant Ecto-PfRipr (D21-N1086), C-terminal His-tag (P. falciparum 3D7, UniProt O97302 21-1086); assay: as above; conditions: both partners purified
[3] = target: T1, Recombinant Ecto-PfRipr (D21-N1086), …; assay: SPR; single-cycle kinetics, Biacore X100; […], dissociation 180 s, […]; conditions: both partners purified

Sequence of Recombinant Ecto-PfRipr (D21-N1086), C-terminal His-tag (P. falciparum 3D7) (O97302 21-1086): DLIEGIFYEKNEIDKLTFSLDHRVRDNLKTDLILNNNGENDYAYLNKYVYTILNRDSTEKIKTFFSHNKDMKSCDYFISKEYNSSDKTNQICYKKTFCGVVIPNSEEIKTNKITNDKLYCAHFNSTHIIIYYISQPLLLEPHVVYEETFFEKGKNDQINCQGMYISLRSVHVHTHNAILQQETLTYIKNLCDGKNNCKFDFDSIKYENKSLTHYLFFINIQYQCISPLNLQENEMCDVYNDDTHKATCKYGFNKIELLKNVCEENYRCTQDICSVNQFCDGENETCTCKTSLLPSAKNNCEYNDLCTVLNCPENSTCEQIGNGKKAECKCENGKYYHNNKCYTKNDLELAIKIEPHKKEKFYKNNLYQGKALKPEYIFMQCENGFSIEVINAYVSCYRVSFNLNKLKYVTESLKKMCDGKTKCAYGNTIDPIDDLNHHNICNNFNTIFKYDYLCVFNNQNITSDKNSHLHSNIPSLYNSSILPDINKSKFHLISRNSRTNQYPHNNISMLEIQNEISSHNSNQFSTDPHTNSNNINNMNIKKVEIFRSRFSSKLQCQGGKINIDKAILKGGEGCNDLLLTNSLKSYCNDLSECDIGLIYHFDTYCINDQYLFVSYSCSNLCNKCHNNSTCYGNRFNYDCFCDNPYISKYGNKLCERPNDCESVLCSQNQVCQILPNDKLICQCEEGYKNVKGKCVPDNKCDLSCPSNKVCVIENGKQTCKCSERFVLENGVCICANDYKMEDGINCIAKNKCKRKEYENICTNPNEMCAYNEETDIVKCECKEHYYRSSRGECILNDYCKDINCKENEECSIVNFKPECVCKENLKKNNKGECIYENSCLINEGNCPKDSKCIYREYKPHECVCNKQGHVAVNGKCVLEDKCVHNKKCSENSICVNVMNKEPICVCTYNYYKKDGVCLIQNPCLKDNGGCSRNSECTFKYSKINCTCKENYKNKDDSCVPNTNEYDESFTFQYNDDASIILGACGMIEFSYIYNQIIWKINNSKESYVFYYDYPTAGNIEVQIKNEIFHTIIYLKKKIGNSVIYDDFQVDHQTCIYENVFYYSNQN
T1 sequence (O97302 21-1086): as above

Row | Molecule | Kd [2] [nM] | koff [2] [s⁻¹] | kon [2] [M⁻¹ s⁻¹] | also measured
1 | GST-fused recombinant NPTN (Q29-L221) with C-terminal His-tag (domain or fragment) | – | – | – | Kd [1]: 24 nM; koff [1]: 6.5e-05 s⁻¹; kon [1]: 2700 M⁻¹ s⁻¹
2 | GST-fused recombinant AMIGO2 (M1-N397) with C-terminal His-tag (domain or fragment, human, UniProt Q86SJ2 1-397, looked up) MSLRVHTLPTLLGAVVRPGCRELLCLLMITVTVGPGASGVCPTACICATDIVSCTNKNLSKVPGNLFRLIKRLDLSYNRIGLLDSEWIPVSFAKLNTLILRHNNITSISTGSFSTTPNLKCLDLSSNKLKTVKNAVFQELKVLEVLLLYNNHISYLDPSAFGGLSQLQKLYLSGNFLTQFPMDLYVGRFKLAELMFLDVSYNRIPSMPMHHINLVPGKQLRGIYLHGNPFVCDCSLYSLLVFWYRRHFSSVMDFKNDYTCRLWSDSRHSRQVLLLQDSFMNCSDSIINGSFRALGFIHEAQVGERLMVHCDSKTGNANTDFIWVGPDNRLLEPDKEMENFYVFHNGSLVIESPRFEDAGVYSCIAMNKQRLLNETVDVTINVSNFTVSRSHAHEAFN | 0.16 | 2e-05 | 120000 | –
3 | GST-fused recombinant SEMA7A (Q45-H666) with C-terminal His-tag (domain or fragment, human, UniProt O75326 45-666, looked up) QGHLRSGPRIFAVWKGHVGQDRVDFGQTEPHTVLFHEPGSSSVWVGGRGKVYLFDFPEGKNASVRTVNIGSTKGSCLDKRDCENYITLLERRSEGLLACGTNARHPSCWNLVNGTVVPLGEMRGYAPFSPDENSLVLFEGDEVYSTIRKQEYNGKIPRFRRIRGESELYTSDTVMQNPQFIKATIVHQDQAYDDKIYYFFREDNPDKNPEAPLNVSRVAQLCRGDQGGESSLSVSKWNTFLKAMLVCSDAATNKNFNRLQDVFLLPDPSGQWRDTRVYGVFSNPWNYSAVCVYSLGDIDKVFRTSSLKGYHSSLPNPRPGKCLPDQQPIPTETFQVADRHPEVAQRVEPMGPLKTPLFHSKYHYQKVAVHRMQASHGETFHVLYLTTDRGTIHKVVEPGEQEHSFAFNIMEIQPFRRAAAIQTMSLDAERRKLYVSSQWEVSQVPLDLCEVYGGGCHGCLMSRDPYCGWDQGRCISIYSSERSVLQSINPAEPHKECPNPKPDKAPLQKVSLAPNSRYYLSCPMESRHATYSWRHKENVEQSCEPGHQSPNCILFIENLTAQQYGHYFCEAQEGSYFREAQHWQLLPEDGIMAEHLLGHACALAASLWLGVLPTLTLGLLVH | 0.94 | 4.1e-05 | 44000 | –
4 | Recombinant Rh5 (E26-Q526), released from GST by TEV protease (domain or fragment) ENAIKKTKNQENNLTLLPIKSTEEEKDDIKNGKDIKKEIDNDKENIKTNNAKDHSTYIKSYLNTNVNDGLKYLFIPSHNSFIKKYSVFNQINDGMLLNEKNDVKNNEDYKNVDYKNVNFLQYHFKELSNYNIANSIDILQEKEGHLDFVIIPHYTFLDYYKHLSYNSIYHKSSTYGKCIAVDAFIKKINETYDKVKSKCNDIKNDLIATIKKLEHPYDINNKNDDSYRYDISEEIDDKSEETDDETEEVEDSIQDTDSNHTPSNKKKNDLMNRTFKKMMDEYNTKKKKLIKCIKNHENDFNKICMDMKNYGTNLFEQLSCYNNNFCNTNGIRYHYDEYIHKLILSVKSKNLNKDLSDMTNILQQSELLLTNLNKKMGSYIYIDTIKFIHKEMKHIFNRIEYHTKIINDKTKIIQDKIKLNIWRTFQKDELLKRILDMSNEYSLFITSDHLRQMLYNTFYSKEKHLNNIFHHLIYVLQMKFNDVPIKMEYFQTYKKNKPLTQ | 0.48 | 2.9e-05 | 61000 | –
5 | GST-fused recombinant CyRPA (N27-E362) with C-terminal His-tag (domain or fragment) NCDSRHVFIRTELSFIKNNVPCIRDMFFIYKRELYNICLDDLKGEEDETHIYVQKKVKDSWITLNDLFKETDLTGRPHIFAYVDVEEIIILLCEDEEFSNRKKDMTCHRFYSNDGKEYNNSEITISDYILKDKLLSSYVSLPLKIENREYFLICGVSPYKFKDDNKKDDILCMASHDKGETWGTKIVIKYDNYKLGVQYFFLRPYISKNDLSFHFYVGDNINNVKNVNFIECTHEKDLEFVCSNRDFLKDNKVLQDVSTLNDEYIVSYGNDNNFAECYIFFNNENSILIKPEKYGNTTAGCYGGTFVKIDENRTLFIYSSSQGIYNIHTIYYANYE | – | – | – | Kd [3]: 69 nM; koff [3]: 0.00016 s⁻¹; kon [3]: 2400 M⁻¹ s⁻¹
